From patent US20120316071A1 (published 2012)

B1: Fab VH1-46_IGHD6-6*01_IGHJ1*01 S102A/S103P/S104F (APF) & L6_IGKJ1*01 (Fab, V domains shown)
VH: QVQLVQSGAEVKKPGASVKVSCKASGYTFTSYYMHWVRQAPGQGLEWMGIINPSGGSTSYAQKFQGRVTMTRDTSTSTVYMELSSLRSEDTAVYYCAREEYAPFSAEYFQHWGQGTLVTVSS
VL: not shown
notes: Tested as a Fab made in E. coli: VH cloned in Plasmid A (CH1 constant region, His6 and Flag tags), VL in Plasmid C (kappa constant region); also called H:APF & L:wt; APF triple mutant
B2: Fab VH1-46_IGHD3-10*01_IGHJ4*01 & B3_IGKJ1*01 (Fab, V domains shown)
VH: QVQLVQSGAEVKKPGASVKVSCKASGYTFTSYYMHWVRQAPGQGLEWMGIINPSGGSTSYAQKFQGRVTMTRDTSTSTVYMELSSLRSEDTAVYYCAREYYYGSGSYYNDYFDYWGQGTLVTVSS
VL: not shown
notes: Tested as a Fab made in E. coli; VH was cloned into Plasmid A (CH1 constant region, His6 and Flag tags); The kappa VL was cloned into Plasmid C (kappa CL)

Legend:
[1] = target: T1, rHuman Erythropoietin R/Fc Chimera, CF (R&D Systems Cat#963-ER) (human, UniProt P19235 25-250); assay: ECL Multispot (MSD), antigen spotted; Fab 50 (µM); blank 386
T1 construct: Bought recombinant protein; also called EPO R; EPO R/Fc; Fc part of the bought chimera not given
T1 sequence (looked up): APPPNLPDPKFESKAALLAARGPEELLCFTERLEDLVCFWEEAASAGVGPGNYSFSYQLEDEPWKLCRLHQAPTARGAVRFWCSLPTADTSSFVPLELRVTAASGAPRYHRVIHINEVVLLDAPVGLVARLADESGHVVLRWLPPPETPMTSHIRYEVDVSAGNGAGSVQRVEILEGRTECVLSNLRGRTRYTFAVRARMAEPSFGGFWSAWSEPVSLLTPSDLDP

[2] = target: T2, Recombinant Human DLL4 (R&D Systems Cat#1506-D4/CF) (human, UniProt Q9NR61 27-529); assay: as above
T2 construct: Bought recombinant protein; also called delta-like protein 4; rHuman DLL4

[3] = target: T3, rHuman ErbB2/Fc Chimera, CF (R&D Systems Cat#1129-ER) (human, UniProt P04626 23-652); assay: as above
T3 construct: Bought recombinant protein; Fc part of the bought chimera not given

[4] = target: T4, rHuman EGF R/Fc Chimera, CF (R&D Systems Cat#344-ER) (human, UniProt P00533 25-645); assay: as above
T4 construct: Bought recombinant protein; Fc part of the bought chimera not given

[5] = target: T5, rHuman HGF R/c-MET/Fc Chimera, CF (R&D Systems Cat#358-MT/CF) (human, UniProt P08581 25-932); assay: as above
T5 construct: Bought recombinant protein; also called HGF R/Fc; Fc part of the bought chimera not given

[6] = target: T6, rHuman Notch-1/Fc Chimera, CF (R&D Systems Cat#3647-TK) (human, UniProt P46531 19-526); assay: as above
T6 construct: Bought recombinant protein; Fc part of the bought chimera not given

[7] = target: T7, rHuman CD44/Fc Chimera, CF (R&D Systems Cat#3660-CD) (human, UniProt P16070 21-220); assay: as above
T7 construct: Bought recombinant protein; Fc part of the bought chimera not given

[8] = target: T8, rHuman IGF-1 sR, CF (R&D Systems Cat#391-GR) (human, UniProt P08069 31-932); assay: as above
T8 construct: Bought recombinant soluble receptor; also called insulin-like growth factor-1 soluble receptor

[9] = target: T9, rHuman P-Cadherin/Fc Chimera, CF (R&D Systems Cat#861-PC) (human, UniProt P22223 108-654); assay: as above
T9 construct: Bought recombinant protein; Fc part of the bought chimera not given

[10] = target: T10, rHuman ErbB2/Fc Chimera, CF (R&D Systems Cat#1129-ER) (human, UniProt P04626 23-652); assay: MSD multispot ECL, antigen spotted on plate, Fab 705 nM; blank spot 483
T10 construct: Bought from R&D Systems; also called human epidermal growth factor 2 receptor (ErbB2); not shown: Fc of the bought chimera

[11] = target: T11, rHuman EGF R/Fc Chimera, CF (R&D Systems Cat#344-ER) (human, UniProt P00533 25-645); assay: as above
T11 construct: Bought from R&D Systems; also called epidermal growth factor receptor (EGF R); not shown: Fc of the bought chimera

[12] = target: T12, rHuman HGF R/c-MET/Fc Chimera, CF (R&D Systems Cat#358-MT/CF) (human, UniProt P08581 25-932); assay: as above
T12 construct: Bought from R&D Systems; also called HGF R/Fc; hepatocyte growth factor receptor (HGF R/c-Met); not shown: Fc of the bought chimera

[13] = target: T13, rHuman Notch-1/Fc Chimera, CF (R&D Systems Cat#3647-TK) (human, UniProt P46531 19-526); assay: as above
T13 construct: Bought from R&D Systems; not shown: Fc of the bought chimera

[14] = target: T14, rHuman IGF-1 sR, (IGF-1 sR), CF (R&D Systems Cat#391-GR) (human, UniProt P08069 31-932); assay: as above
T14 construct: Bought from R&D Systems and called a soluble receptor; also called insulin-like growth factor-1 soluble receptor

[15] = target: T15, Recombinant Human DLL4 (R&D Systems Cat#1506-D4/CF) (human, UniProt Q9NR61 27-524); assay: MSD multispot ECL, antigen spotted on plate, Fab 44.1 nM; blank spot 200
T15 construct: Bought from R&D Systems; also called rHuman DLL4; delta-like protein 4

[16] = target: T11, rHuman EGF R/Fc Chimera, CF (R&D …); assay: as above
[17] = target: T12, rHuman HGF R/c-MET/Fc Chimera, CF (R&D …); assay: as above
[18] = target: T14, rHuman IGF-1 sR, (IGF-1 sR), CF (R&D …); assay: as above
[19] = target: T16, rHuman P-Cadherin/Fc Chimera, CF (R&D Systems Cat#861-PC) (human, UniProt P22223 108-654); assay: as above
T16 construct: Bought from R&D Systems; not shown: Fc of the bought chimera

Row | Binder | ECL signal [1] | ECL signal [2] | ECL signal [3] | ECL signal [4] | ECL signal [5] | ECL signal [6] | ECL signal [7] | ECL signal [8] | ECL signal [9] | ECL signal [10] | ECL signal [11] | ECL signal [12] | ECL signal [13] | ECL signal [14] | ECL signal [15] | ECL signal [16] | ECL signal [17] | ECL signal [18] | ECL signal [19]
1 | B1 | 768 | 80000 | 672 | 585 | 525 | 509 | 557 | 558 | 652 | – | – | – | – | – | – | – | – | – | –
2 | B2 | – | – | – | – | – | – | – | – | – | 671 | 692 | 839 | 958 | 630 | 388 | 428 | 336 | 309 | 343
